Laboratory results taken from the supplement of paper PMC7877785.
± gives the uncertainty stated by the source.

Experiment: self-splicing fitness, log relative to wild type (ln ratio); higher = more splicing; Tetrahymena group I intron in knt gene, E. coli kanamycin selection, DiMSum; sequences stand for … in CUCUCU…GGAGGGAAAAGUUAUCAGGCAUGCACCUGGUAGCUAGUCUUUAAACCAAUAGAUUGCAUCGGUUUAAAAGGCAAGACCGUCAAAUUGCGGGAAAGGGGUCAACAGCCGUUCAGUACCAAGUCUCAGGGGAAACUUUGAGAUGGCCUUGCAAAGGGUAUGGUAAUAAGCUGACGGACAUGGUCCUAACCACGCAGCCAAGUCCUAAGUCAACAGAUCUUCUGUUGAUAUGGAUGCAGUUCACAGACUAAAUGUCGGUCGGGGAAGAUGUAUUCUUCUCAUAAGAUAUAGUCGGACCUCUCCUUAAUGGGAGCUAGCGGAUGAAGUGAUGCAACACUGGAGCCGCUGGGAACUAAUUUGUAUGCGAAAGUAUAUUGAUUAGUUUUGGAGUACUCGUGGUCG
Method in brief: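 Colonies from six replicate transformations of E. coli BL21(DE3) were pooled and amplicon-sequenced on an Illumina HiSeq 2500. The library placed an intron with all eight P1ex-region nucleotides randomised inside the knt kanamycin-resistance gene on pET-22b(+), and cells grew overnight at 37°C or 30°C on LB agar with or without 25 μg/mL kanamycin (plus 100 μg/mL carbenicillin, 50 μM IPTG, 0.2% rhamnose). Fitness is the DiMSum error-weighted combination of wild-type-normalised replicate fold changes, kanamycin versus none.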

Sequence	self-splicing fitness (ln) (30 °C)	self-splicing fitness (ln) (37 °C)
CCCCAGCAAUAUUACGGUGA	-1.76 ± 0.085	-1.77 ± 0.11
CCCCAGCAAUAUUACGUAUG	-3.71 ± 0.15	-1.96 ± 0.13
CCCCAGCAAUAUUACGUCAG	-2.54 ± 0.14	-1.36 ± 0.15
CCCCAGCAAUAUUACGUCGU	-3.19 ± 0.12	-2.05 ± 0.12
CCCCAGCAAUAUUACGUUCG	-3.53 ± 0.16	-2.79 ± 0.17
CCCCAGCAAUAUUACGUUGC	-3.41 ± 0.12	-2.78 ± 0.17
CCCCAGCAAUAUUACGUUGG	-3.95 ± 0.12	-2.83 ± 0.14
CCCGAGCAAUAUUACGAAAG	-3.74 ± 0.27	-1.7 ± 0.36
CCCGAGCAAUAUUACGAAAU	-3.65 ± 0.33	-0.929 ± 0.16
CCCGAGCAAUAUUACGAAUC	-1.59 ± 0.16	–
CCCGAGCAAUAUUACGACAC	-3.41 ± 0.4	–
CCCGAGCAAUAUUACGACGU	-2.47 ± 0.15	-0.954 ± 0.13
CCCGAGCAAUAUUACGAUGG	-3.39 ± 0.16	-1.28 ± 0.13
CCCGAGCAAUAUUACGCAGU	-2.82 ± 0.16	-2.64 ± 0.18
CCCGAGCAAUAUUACGCGUA	-3.06 ± 0.21	-2.05 ± 0.21
CCCGAGCAAUAUUACGGAAC	-2.51 ± 0.31	-2.57 ± 0.34
CCCGAGCAAUAUUACGGACC	-3 ± 0.28	–
CCCGAGCAAUAUUACGGAGC	-1.75 ± 0.16	-2.77 ± 0.36
CCCGAGCAAUAUUACGGAUG	-1.67 ± 0.091	-1.35 ± 0.13
CCCGAGCAAUAUUACGGGAG	-3.25 ± 0.24	-1.5 ± 0.19
CCCGAGCAAUAUUACGGGUA	-3.44 ± 0.2	-3.43 ± 0.23
CCCGAGCAAUAUUACGUAAG	-3.63 ± 0.2	-2.77 ± 0.18
CCCGAGCAAUAUUACGUAGU	-3.11 ± 0.15	-2.58 ± 0.19
CCCGAGCAAUAUUACGUCGC	-2.91 ± 0.25	-2.29 ± 0.4
CCCGAGCAAUAUUACGUGUG	-3.24 ± 0.12	-1.86 ± 0.098
CCCUAGCAAUAUUACGAACU	-2.89 ± 0.18	-3.56 ± 0.39

Sequence	self-splicing fitness (ln) (30 °C)	self-splicing fitness (ln) (37 °C)
CCCUAGCAAUAUUACGAGUG	-3.51 ± 0.16	-2.28 ± 0.12
CCCUAGCAAUAUUACGAUAG	-2.74 ± 0.2	-2.39 ± 0.27
CCCUAGCAAUAUUACGAUUC	-1.79 ± 0.35	–
CCCUAGCAAUAUUACGCAAA	-3.13 ± 0.24	-3.49 ± 0.42
CCCUAGCAAUAUUACGCACG	-3.98 ± 0.37	-1.74 ± 0.18
CCCUAGCAAUAUUACGCACU	-2.43 ± 0.15	-2.64 ± 0.24
CCCUAGCAAUAUUACGCCGA	-3.85 ± 0.33	-2.31 ± 0.3
CCCUAGCAAUAUUACGCUCA	–	-2.67 ± 0.36
CCCUAGCAAUAUUACGCUCC	–	-2.13 ± 0.4
CCCUAGCAAUAUUACGGCCA	-2.88 ± 0.39	-2.19 ± 0.26
CCCUAGCAAUAUUACGGGAA	-3.63 ± 0.25	-3.08 ± 0.19
CCCUAGCAAUAUUACGGUAG	-3.6 ± 0.16	-3.5 ± 0.21
CCCUAGCAAUAUUACGGUGC	-3.43 ± 0.12	-2.88 ± 0.17
CCCUAGCAAUAUUACGGUGG	-4.27 ± 0.29	-1.93 ± 0.16
CCCUAGCAAUAUUACGGUUU	-3.31 ± 0.17	-2.87 ± 0.17
CCCUAGCAAUAUUACGUACU	-2.78 ± 0.14	-2.65 ± 0.23
CCCUAGCAAUAUUACGUCAC	-2.55 ± 0.24	-1.44 ± 0.34
CCCUAGCAAUAUUACGUGGA	-1.42 ± 0.094	-0.882 ± 0.093
CCCUAGCAAUAUUACGUGGU	-4.61 ± 0.2	-2.27 ± 0.14
CCCUAGCAAUAUUACGUGUA	-3.49 ± 0.25	-2.94 ± 0.21
CCCUAGCAAUAUUACGUUCU	-4.33 ± 0.23	-3.61 ± 0.19
CCCUAGCAAUAUUACGUUUC	-3.32 ± 0.17	-2.24 ± 0.19
CCCUAGCAAUAUUACGUUUU	-3.59 ± 0.15	-2.2 ± 0.14
CCGAAGCAAUAUUACGAAUA	-2.66 ± 0.24	-2.49 ± 0.21
CCGAAGCAAUAUUACGACAG	-0.797 ± 0.098	-0.282 ± 0.12
CCGAAGCAAUAUUACGAGAC	–	-2.52 ± 0.31

Sequence	self-splicing fitness (ln) (30 °C)	self-splicing fitness (ln) (37 °C)
CCGAAGCAAUAUUACGAGUA	-2.42 ± 0.2	-2.92 ± 0.23
CCGAAGCAAUAUUACGAUAU	-4.3 ± 0.35	-3.21 ± 0.26
CCGAAGCAAUAUUACGCCGG	–	-2.21 ± 0.46
CCGAAGCAAUAUUACGCGAU	-3.78 ± 0.28	-1.93 ± 0.33
CCGAAGCAAUAUUACGCUUU	-2.45 ± 0.15	-3.33 ± 0.23
CCGAAGCAAUAUUACGGAGC	-1.9 ± 0.33	-2.74 ± 0.44
CCGAAGCAAUAUUACGGAUU	-2.88 ± 0.27	-3.15 ± 0.35
CCGAAGCAAUAUUACGGCAU	-4.19 ± 0.31	-2.92 ± 0.23
CCGAAGCAAUAUUACGGCGA	-2.69 ± 0.3	-2.53 ± 0.32
CCGAAGCAAUAUUACGUAUG	-0.869 ± 0.077	0.0157 ± 0.1
CCGAAGCAAUAUUACGUCCU	–	-1.89 ± 0.28
CCGAAGCAAUAUUACGUGUC	-3.49 ± 0.23	-1.34 ± 0.16
CCGAAGCAAUAUUACGUUAU	-3.94 ± 0.32	-2.87 ± 0.2
CCGAAGCAAUAUUACGUUUC	-3.56 ± 0.24	-2.84 ± 0.19
CCGCAGCAAUAUUACGAACU	-1.92 ± 0.17	–
CCGCAGCAAUAUUACGACGA	-0.105 ± 0.077	-0.259 ± 0.084
CCGCAGCAAUAUUACGAGAA	-3.07 ± 0.28	-2.24 ± 0.31
CCGCAGCAAUAUUACGAGCG	-2.4 ± 0.12	-0.494 ± 0.11
CCGCAGCAAUAUUACGAGGA	-3.51 ± 0.19	-1.79 ± 0.13
CCGCAGCAAUAUUACGAGUU	-4.11 ± 0.22	-2.56 ± 0.21
CCGCAGCAAUAUUACGCCAU	-3.66 ± 0.15	-3.07 ± 0.19
CCGCAGCAAUAUUACGCCCG	-0.205 ± 0.11	0.732 ± 0.16
CCGCAGCAAUAUUACGCGUC	-3 ± 0.13	-3.01 ± 0.23
CCGCAGCAAUAUUACGGCUG	-3.8 ± 0.29	-2.45 ± 0.27
CCGCAGCAAUAUUACGGUGU	-3.97 ± 0.16	-1.89 ± 0.14
CCGCAGCAAUAUUACGGUUG	-2.18 ± 0.066	-1.24 ± 0.085
